Legend:
Test in all cases: SEC; Agilent-1100, TSK G3000SWXL column; 0.2 M NaH2PO4, 0.1 M arginine, 1% IPA, pH 6.5; peaks integrated for approximate trimer percentage; N = 3
[1] = molecular target: hMPV F pre-F benchmark D185P (subtype A2, CAN97-83 ectodomain with foldon) (human metapneumovirus, subtype A2, strain CAN97-83 | T4)
[2] = molecular target: hMPV F pre-F design K362F_G366F (subtype A2, CAN97-83 ectodomain with foldon) (human metapneumovirus, subtype A2, strain CAN97-83 | T4)
[3] = molecular target: hMPV F pre-F design N46V_T160F (subtype A2, CAN97-83 ectodomain with foldon) (human metapneumovirus, subtype A2, strain CAN97-83 | T4)

hMPV F pre-F benchmark D185P (subtype A2, CAN97-83 ectodomain with foldon) (domain or fragment)
Trimer (%) [1]: 97.1% | stoichiometry N [1]: 3

hMPV F pre-F design K362F_G366F (subtype A2, CAN97-83 ectodomain with foldon) (domain or fragment)
Trimer (%) [2]: 76.9% | stoichiometry N [2]: 3

hMPV F pre-F design N46V_T160F (subtype A2, CAN97-83 ectodomain with foldon) (domain or fragment)
Trimer (%) [3]: 94.7% | stoichiometry N [3]: 3
